The labels stand for the following.
B1: H4H18440P2 (antibody, human IgG4, V domains shown)
VH: QVQLVESGGGMVKPGGSLRLSCAASGFTFSDYYMSWIRQAPGKGLEWISHISITGSTIYYADSVKGRFTISRDNAKNSLYLEMNRLRDEDTAVYYCTRDEPDIVLVRYGMDVWGQGTTVTVSS
VL: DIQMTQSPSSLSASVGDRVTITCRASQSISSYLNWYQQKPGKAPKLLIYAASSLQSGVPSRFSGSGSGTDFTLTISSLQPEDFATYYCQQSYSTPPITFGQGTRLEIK
notes: H4H prefix: human IgG4 Fc
B2: H4H18457P2 (antibody, human IgG4, V domains shown)
VH: EVQLVESGGSVVRPGESLRLSCAASGFTFDDYGMSWVRQAPGKGLEWVSGISWNGGITVYADSVKGRFTVSRDNAKNSLYLQMNSLRAEDTALYHCARARYGGADYWGQGTLVTVSS
VL: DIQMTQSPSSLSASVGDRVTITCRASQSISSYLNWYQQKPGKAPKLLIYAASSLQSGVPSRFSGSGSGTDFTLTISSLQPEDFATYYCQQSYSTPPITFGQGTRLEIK
notes: H4H prefix: human IgG4 Fc
B3: H4H18464P2 (antibody, human IgG4, V domains shown)
VH: QVQLVQSGPEVKKPGASVKVSCKGSGYTFSWYGISWIRQAPGHGLEWMGWISASSGNTRFAQKVQGRLTMTTDTSTSTAYMELRSLRSDDTAVYYCARTGTRPFDYWGQGTLVTVSS
VL: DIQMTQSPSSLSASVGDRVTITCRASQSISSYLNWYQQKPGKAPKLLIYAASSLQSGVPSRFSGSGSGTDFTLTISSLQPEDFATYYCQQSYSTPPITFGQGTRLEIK
notes: H4H prefix: human IgG4 Fc
B4: H4H17322P2 (antibody, human IgG4, V domains shown)
VH: QLQLQESGPGLVKPSETLSLTCTVSGASISSSRFYGGWIRQPPGKGLEWIGDIYYSGNTYYNPSLQSRVTISVDTSKNQFSLKLSSVTAADTAVYYCARHLMITFGGLIVEGFDIWGQGTMVTVSS
VL: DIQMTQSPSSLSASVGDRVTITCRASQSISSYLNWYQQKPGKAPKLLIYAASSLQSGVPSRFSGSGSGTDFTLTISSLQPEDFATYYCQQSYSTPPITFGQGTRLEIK
notes: H4H prefix: human IgG4 Fc
B5: H4H18439P2 (antibody, human IgG4, V domains shown)
VH: QLQLQESGPGLVKPSETLSLTCIVSGGDITSSSYYWNWIRQPPGKGLEWIGNIYYSGSTNYNPSLKSRVTISIDTSKSQFSLKLRSVTAADTAVYYCARLLRYFDWSKGYLDYWGQGTLVTVSS
VL: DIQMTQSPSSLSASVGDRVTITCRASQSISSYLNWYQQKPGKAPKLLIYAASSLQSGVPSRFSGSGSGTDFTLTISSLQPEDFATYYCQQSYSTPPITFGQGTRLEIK
notes: H4H prefix: human IgG4 Fc
B6: H4H18462P2 (antibody, human IgG4, V domains shown)
VH: EVQLVESGGDLVQPGRSLRLSCAASGFTFSSFAMSWVRQAPGRGLEWVSSLSDSGDNTYYADSVKGRFTISRDNSKNTLYLQMNNLRAEDTAVYYCAKDLFSGWLFHGFDVWGQGTMVTVSS
VL: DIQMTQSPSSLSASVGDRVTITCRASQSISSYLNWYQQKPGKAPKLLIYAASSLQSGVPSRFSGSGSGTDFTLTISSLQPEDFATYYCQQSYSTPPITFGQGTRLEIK
notes: H4H prefix: human IgG4 Fc
B7: H4H18466P2 (antibody, human IgG4, V domains shown)
VH: EVQLVESGGGLVQPGGSLRLSCTASGFTFSSYGLHWVRQAPGKGLEYVSSINHNGGSKYYADSVKGRFTISRDNSKNTLFLQMGSLKTEDMAVYYCARDLFLEWLFHGFDIWGQGTMVTVSS
VL: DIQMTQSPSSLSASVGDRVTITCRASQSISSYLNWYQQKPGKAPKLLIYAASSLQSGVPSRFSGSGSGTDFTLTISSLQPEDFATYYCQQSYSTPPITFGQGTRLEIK
notes: H4H prefix: human IgG4 Fc
B8: H4H18437P2 (antibody, human IgG4, V domains shown)
VH: QVQLVESGGGVVQPGRSLRLSCAASGFTFSSYGIHWVRQAPGKGLEWVAVISYDGNNKYYADSVKGRFTISRDNSKNTLYLQMNSLRAEDTAVYYCAKDLFLEWLFHGMGVWGQGTTVTVSS
VL: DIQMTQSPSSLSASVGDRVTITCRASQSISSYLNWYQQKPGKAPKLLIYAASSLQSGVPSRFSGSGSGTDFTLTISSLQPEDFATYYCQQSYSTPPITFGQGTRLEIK
notes: H4H prefix: human IgG4 Fc

The values below come from US20200123264A1 (Regeneron, published 2020).

One test concerns the target T1, full-length human LEPR on IMR-32/STAT3-Luc/hLEPR cells (human, UniProt P48357 22-1165).
T1 sequence (looked up): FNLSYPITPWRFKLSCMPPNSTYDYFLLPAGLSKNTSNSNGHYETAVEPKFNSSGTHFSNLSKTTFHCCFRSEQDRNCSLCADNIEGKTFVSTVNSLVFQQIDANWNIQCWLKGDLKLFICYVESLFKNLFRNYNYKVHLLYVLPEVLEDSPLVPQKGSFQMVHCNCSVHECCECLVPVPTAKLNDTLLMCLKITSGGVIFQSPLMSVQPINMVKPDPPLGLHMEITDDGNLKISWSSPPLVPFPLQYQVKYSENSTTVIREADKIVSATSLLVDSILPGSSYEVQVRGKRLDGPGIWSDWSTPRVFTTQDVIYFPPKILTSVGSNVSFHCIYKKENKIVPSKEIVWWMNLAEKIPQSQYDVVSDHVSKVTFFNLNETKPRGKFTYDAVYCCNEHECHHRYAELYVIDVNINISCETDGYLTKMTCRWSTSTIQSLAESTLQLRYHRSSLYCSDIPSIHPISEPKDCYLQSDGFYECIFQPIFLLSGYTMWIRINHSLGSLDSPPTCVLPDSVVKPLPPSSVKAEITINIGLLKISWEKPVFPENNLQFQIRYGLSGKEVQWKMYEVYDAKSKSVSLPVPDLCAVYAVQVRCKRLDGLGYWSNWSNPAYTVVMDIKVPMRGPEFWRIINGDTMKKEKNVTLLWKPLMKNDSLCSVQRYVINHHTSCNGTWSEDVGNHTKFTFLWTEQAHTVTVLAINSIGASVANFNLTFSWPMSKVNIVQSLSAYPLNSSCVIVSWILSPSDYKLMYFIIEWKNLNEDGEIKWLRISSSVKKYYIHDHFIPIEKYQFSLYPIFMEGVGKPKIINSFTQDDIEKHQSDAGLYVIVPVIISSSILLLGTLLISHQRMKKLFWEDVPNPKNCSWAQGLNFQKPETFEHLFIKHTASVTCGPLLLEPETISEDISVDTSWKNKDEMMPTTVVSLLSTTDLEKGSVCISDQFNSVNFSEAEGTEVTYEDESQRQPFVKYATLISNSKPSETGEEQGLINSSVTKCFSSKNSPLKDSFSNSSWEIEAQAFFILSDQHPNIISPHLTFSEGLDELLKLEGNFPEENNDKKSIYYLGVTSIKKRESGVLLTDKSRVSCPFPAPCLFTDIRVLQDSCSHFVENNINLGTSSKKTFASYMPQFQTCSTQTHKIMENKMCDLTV
The test can be described thus: cell-based or functional assay.
For B1, the “% activation, IMR-32/LEPR without human Leptin” value turned out to be 4%.
On to B2, for which the “% inhibition, IMR-32/LEPR with 200 pM human Leptin” value turned out to be 100% and the “IC50 (M), IMR-32/LEPR with 200 pM human Leptin” value was found to be 7.23e-10 M.
As to B3, the “% activation, IMR-32/LEPR without human Leptin” value was 6%; the “% inhibition, IMR-32/LEPR with 200 pM human Leptin” value stood at 100%; the “EC50 (M), IMR-32/LEPR without human Leptin (STAT3-Luc)” value stood at 1.3e-10 M; the “IC50 (M), IMR-32/LEPR with 200 pM human Leptin” value stood at 2.9e-09 M.

For the next test, the target named is T2, recombinant human LEPR extracellular domain expressed with a C-terminal myc-myc-hexahistidine tag (human, UniProt P48357 22-839).
T2 construct: Monomeric construct; also called hLEPR.MMH; hLEPR-MMH
The test can be described thus: Luminex, myc-captured LEPR protein on beads, Ab 5 µg/mL. The protocol:
(§1) Aliquots of microspheres with immobilized anti-myc monoclonal antibodies, prepared as described above, were added individually to 1 mL of the each of these protein supernatants. The microspheres were gently mixed, incubated for two hours at 25° C., washed twice with 1 mL of DBPS, centrifuged to remove the supernatant and finally resuspended in 1 mL of DPBS buffer. Forty eight μL of anti-myc IgG coupled microspheres from individual reactions with full length human LEPR and with each of the human LEPR domain proteins were withdrawn and mixed together in 3.6 mL of PBS+20 mg/mL BSA+0.05% sodium azide (blocking buffer).
(§2) From this mixed pool, 75 μL of microspheres were plated per well on a 96 well filter plate (Millipore, Cat. No: MSBVN1250) and mixed with 25 μL of individual anti-human LEPR monoclonal antibodies (0.5 or 5 μg/mL), incubated for two hours at 25° C. and then washed twice with 200 μL of DPBS with 0.05% Tween 20 (washing buffer). […] After 30 minutes, the samples were washed twice with 200 μL of washing buffer and resuspended in 150 μL of wash buffer. The Median Fluorescence intensity (MFI) of the microspheres was measured in a Luminex Analyzer.
Take B1: the “Luminex MFI” value came out at 7040 MFI.
As for B4, the “Luminex MFI” value came to 8930 MFI.
Turning to B5, the “Luminex MFI” value was 5470 MFI.
Regarding B2, the “Luminex MFI” value turned out to be 7500 MFI.
The same measure, in the same setting: the figure for B3 is 9380 MFI; for B6 it is 5850 MFI; for B7 it is 5070 MFI.
For B8, the “Luminex MFI” value worked out at 8640 MFI.

The next test deals with T3, human LEPR CRH1 (D1)-MMH (human, UniProt P48357 22-229, limits assumed).
T3 construct: domain: CRH1 (D1); Transiently expressed, captured from supernatant on anti-myc beads
T3 sequence (looked up): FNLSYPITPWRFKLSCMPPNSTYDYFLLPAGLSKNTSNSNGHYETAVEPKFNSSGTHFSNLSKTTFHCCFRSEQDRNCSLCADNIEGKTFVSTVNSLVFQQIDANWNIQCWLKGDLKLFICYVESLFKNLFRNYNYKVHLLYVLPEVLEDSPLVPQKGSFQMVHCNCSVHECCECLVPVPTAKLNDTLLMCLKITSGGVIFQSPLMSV
The description is as above. The protocol:
as §1, §2
B1: the “Luminex MFI” value is 8 MFI.
B4: the “Luminex MFI” value was found to be 14 MFI.
On to B5, for which the “Luminex MFI” value is 11 MFI.
On the same count and under the same terms, the figure for B2 is 13 MFI; for B3 it is 13 MFI; for B6 it is 5380 MFI.
The same measure, in the same setting: under B7 stands 15 MFI; under B8, 21 MFI.

In the next test the target is T4, human LEPR CRH1-Ig (D2,D3)-MMH (human, UniProt P48357 230-427, limits assumed).
T4 construct: domain: CRH1-Ig (D2,D3); Transiently expressed, captured from supernatant on anti-myc beads
T4 sequence (looked up): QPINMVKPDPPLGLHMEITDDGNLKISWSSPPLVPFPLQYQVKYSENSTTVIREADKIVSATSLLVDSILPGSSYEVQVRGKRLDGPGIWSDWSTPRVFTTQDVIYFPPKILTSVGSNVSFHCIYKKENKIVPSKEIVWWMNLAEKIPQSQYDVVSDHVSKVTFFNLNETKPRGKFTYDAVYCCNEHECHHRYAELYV
Described as above. As to the method:
as §1, §2
Consider B1, for which the “Luminex MFI” value came to 9160 MFI.
Turning to B4, the “Luminex MFI” value is 58 MFI.
Turning to B5, the “Luminex MFI” value turned out to be 10000 MFI.
Regarding B2, the “Luminex MFI” value was 43 MFI.
Same read-out and setting: under B3 stands 3740 MFI; under B6, 47 MFI; under B7, 76 MFI.
As for B8, the “Luminex MFI” value was 43 MFI.

The target of a further test is T2, recombinant human LEPR extracellular …. Kind of test: Luminex, myc-captured LEPR protein on beads, Ab 0.5 µg/mL. As to the method: as §1, §2
As to B6, the “Luminex MFI” value was determined as 3610 MFI.

The target in the next test is T5, human LEPR CRH1 (D1,D2)-MMH (human, UniProt P48357 22-339, limits assumed).
T5 construct: domain: CRH1 (D1,D2); Transiently expressed, captured from supernatant on anti-myc beads
T5 sequence (looked up): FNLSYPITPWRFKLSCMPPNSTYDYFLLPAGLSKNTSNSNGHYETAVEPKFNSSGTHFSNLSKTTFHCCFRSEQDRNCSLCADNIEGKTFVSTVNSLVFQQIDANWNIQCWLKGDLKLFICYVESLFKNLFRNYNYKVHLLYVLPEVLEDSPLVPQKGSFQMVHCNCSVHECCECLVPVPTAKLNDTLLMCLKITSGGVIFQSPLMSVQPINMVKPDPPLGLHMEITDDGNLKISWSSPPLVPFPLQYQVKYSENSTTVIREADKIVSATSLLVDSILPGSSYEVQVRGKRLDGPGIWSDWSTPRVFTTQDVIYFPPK
Described as above. As to the method:
as §1, §2
As for B6, the “Luminex MFI” value amounted to 665 MFI.
